Test results from the domain aggregation screens of Martell et al. (2025).

experiment: soluble fraction after stress (log2 fold change); higher = more stays soluble; pooled small domains, quantitative proteomics; settings: stress: 50 degC
How it was run: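 The stress applied to every library was 50°C. These custom libraries of small protein domains were pooled and measured at high throughput with quantitative proteomics as the read-out. Aggregation propensity is expressed as the base-two logarithm of the fold change in how much of each protein remains soluble. The higher the value, the more of that protein stays in solution.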

Sequence	soluble fraction (log2)
HMRLEEVSVPQRLLAAIAEEREVQIGIVDGRGGTRVLRVEPLALEGGRLRARDVESGEEFTVLIHRVLL	-0.274
HMSMSKISNLLEIMMIIQYKGLTTASELAQSLGVDKKTVYRYINSLSKANIPIYTKKGRYGGFYIDKNF	-1.19
HMEIYEEDRTKVVNDLMDQILNRQITMDAAATKFINIRNSLGTTITKEDEQNLEMLRGLIFDKT	0.16
HMASENISYSQFINQVKNSMVESVSIEADGKTISGKYKSGSSFVTYGLNDPKLVDDLLSNNVEIL	0.159
HMRGAARRDRAVGERAVSKDTILDATRALLRKGSALEIRAIDIAEESGLSRQTVFQYYPVIRLIFFELSD	0.138
HMKPTVKKLLAALPELRSGQPLHLSVATRKLRDAGLLGKNASSPTLFRNYVAQFELIPENQPNAVRYR	-0.551
HMFRMTPQRMAILAEVQNAERHLTAAEIYERVRRKYPTIAYGTVYRTLHLLAKHGLIQEFPFGDNASLFDR	0.0678
HMKLQIQNIEIDKKISELAEGVSAEKLPFLAKLIDRSKLLNDKGEINEDSVKAAIEEVVKAFPDFK	0.081
HMTKVMVPNVVGMSRGEAEEALRGVKLQVDLKREVSDDPEVKPEEVLRQTPDAQTSVPQGSVVTLYVADKP	0.355
HMTNKQEYAYQWLKSSIIENKIKPSTLLVERHLSEMLHISRTPVRTALMRLADEGFVVISPGRGMVVA	-2.03
HMRKSLGEIVFDRMERAIKSGAYSPDERLPTELDLAAEFEVSRPVIRDALKRLRERGLIYSRQGAGSFVRA	-0.499
HMNRETAISIYRILHILEEPYKEVFTLRTLGDLSYREIADIFGKQENWARVTYHRAKLKIREALVS	-2
HMGQVFEGTFNRKANGKNSVTPAEGGEPVFIAERNSLHAMNGDLVKVSLLAKKKHQPREAQVIEILKRSD	0.144
HMKPDDDMLLKILTKLFIQKQFVINSKDIFQYILKNTNRTYENIINIVNRLDTLSIEKKRQLTIPLIKEI	-0.457
HMNAELSTVQAAEVLNVSRPFLIKLLEDGAIPHRKVGKHRRVRMEDVMSYKAAIDTEREAVLDQLAA	0.123
HMTLAAATESREYLADLARRLDAADHGDKTRIKAEAAGLLGWSMATLHARLARDVGWTSGRK	-0.0944
HMATPKYMELVRWINEQIESKNLVPGQKMYSENTLKEMFGVSRQTVRHAIGVLENEGVIRRIQGSGTYIN	-0.829
HMTVTISPGYEGRLLRSYLKNTLSLSTSALARLKTREDGITVNGVRVTVRYVLHAGDLLQLAVD	-0.597
HMQSNDAGELEAVVKGIIDANPKVVADYLAGNQKVVSFFVGQAMKATKGKANPKMVSEILGKLL	0.00348
HMRKDEFLQTLRRALNGNVPPRVVEENVRYYDGYISDEVRKGRSEEEVIEEIGDPRLIARTIEDTT	0.0826
HMRKLHFVMSEIYEDHPWIGSKLQDVFLPKDIRVVLVERDSKQFMPNGQTLFELGDRLTLSALHYDPA	-3.02
HMKDLTAIKGVGEFFAKKLSQAGYQSITNLTDVNAKRLQADTGIPLPIAARIIKEAQSLIAET	0.206
HMPMTDYQLIRSNRRTIALQITRDARVVVRAPLYASEADIRRFVESHRAWIESHLDRQRARTD	-1.76
HMQIIETTVGRVLFNEKVPEAAGYINEVLTKKSLRDIIHGILKKTSVPETAAFLDEIKSLGYNFAF	-0.066
HMSKLSLREIVKKFEEQIIQLHKRGLNHSEISREIVTKNSIDLGDSHIDSLRRAISVHLQTP	-0.0999

Sequence	soluble fraction (log2)
HMSGIVPAAPPLRPDLDIKWHTGDKVRHAKWGEGTIVSVKGEGEETELKIAFPGQGIRPFMQKYAPITR	0.163
HMQNNKITIYISGAVNRPGIVTIESDKRLYDAVELLGGTTKEADLNGVNLSVRLEDEQHYIIPKIGEA	-0.0996
HMQGPDPYAVLGIDRHADERAIKRAYRKLISEHHPDRLGDLPEDMRKRAESRASEINAAYDRIKEARGF	0.0487
HMKYGPSTVAVLTVVRESEMGAFLDAETGRTNDDILLHKTQQTEPVHIGDQVKVFLYLDPKHRLTASMRVP	-1.16
HMRSAKEYKAIREEIYRFIGAYITKHVYAPSNKEIAEAVGISGTTVHRHLIDMIDEGILETD	-2.56
HMGARHPLPYPFARAHGLLLEADGERSTLWASTNVSPAALSEVMRKYAVDVIEEEPPETLSQRIAAAYAA	0.0215
HMSLPKVLVPTDITVSQLAKYLEVDAIAIVKKLFGLGVVASLNQRLENEQMQLLGQEFGKDIIFTEN	-0.438
HMDRMFQPETWSKIYQWVMNDPQVPDKEDVLALIRRHFGNFEKLIKLLHYLDGGKPYAYLSEH	-0.115
HMKDEHYLYIKARVDNGDYPHLSELKSAEEIELVMPKLLQDGIVEFNKETGEYTIGEDVKAEIERL	0.108
HMRRFEFSDGSSNKFWQITRDGTSLTVTFGKIGTAGQTQLKELATEAAAIAEHDKLVKEKTKKGYAEVG	-0.206
HMRPPLRAAIIDHLARDWHTVAELARLLPASGAHVSRLVVELRAVGAVDERISHPDWPGNRPTEYRLRRA	-3.58
HMNEKEAEEAAEAQTEVPDVTGMAPAQAKNMLYQAGLSSEYRGEGETVSRQLPPAGETVNRGTKAVLYL	0.0278
HMSNHYETLGVPRDASQEDIKRAYRRLARKLHPDVAGPGKAEEFKAVNEAYAVLSDEESRRMYDLGGDDAL	0.146
HMSFGWELYKGKEGIADTDLHPSGWIRIADKRVFAVSEGEFIEKGLEIIVLSVDGNRIVVRELK	-1.39
HMLRKTTDLDAIRSVAKDVIDQNPKAVEDYVGGKESAIGFLLGQVMRATKGTADANTVRELLKEILDS	0.311
HMQEPVHFTRRERQVLSLILSGQATAEIAKTLGIANATVTTYKKSLYSKSGTNSLSRLLIWAMVRR	-0.27
HMQMTTPQMVPLFTDLSVDDSASIIKDLERQAVPYQIKSDGAIIMVPKDKVTRLRMKLAESGLPK	0.25
HMLNQIGVSQKEFDQIHTAIKIALKTSSLTPTGITEKLPKFPPEKTADILRWMADNKEVLLNSEEKYELKT	-0.0315
HMETIGENIKTYRQKKGYTQEEVANRLHVTRQTISKWEKNYSIPDAEVLVKLADVLEVQTSQLLGV	0.102
HMSDIDHIAGRRIRQARLNAGMTLETLASQAGISKALLSKIENSKVSSPLATFSKISKVLGVPLSDLLKE	-0.056
HMRDKSITFSEFVKLLDEGQIQKVTLTGNEILGTQKSGDKFRTYAPPQYEGLGNKLVERSVEVTAKE	0.207
HMHSPLLDRYLAEVGWRLRHLSGAQREDILAGLREHIADLESAGVAPEEIVARLGSPESVADAAAGEF	-0.334
HMTGSALDATIEKLLDLGSKAGSVTEDEIQIVLKNVDVTDAQLSSIYQFLRDRGVEIVSATEDDD	0.0977
HMVVLPGEVVALKIIQTGSSKDQGVGYLEDGTMVVVDGAKNSIGKTIEIQISRSHQTVAGRMLFGIAMS	-1.24
HMRFDADELQKAYDLFDADENTPFKTIKQAYYALARRHHPDKNGDQEYFKVINNAFQLIQEHRRRRDN	-0.246

Sequence	soluble fraction (log2)
HMKFSVEEQFKKSFPKNTYETFSETSLKGVYEVYNGKQVYYYLPVNDVLLLGSIVTKDGKNLTQESNSKK	-0.0811
HMYGVAEFDEKGNVLSIEEKPVQPKSNYAVVGLYFYPNKVVGVASGIKPSARGELEITTVNQTFLRDEELK	0.0827
HMSMLGTEQRVLVLGPARKGEGFLMARTDNNRIVNFEGPLSLVDTMVRVKVTDVYPHSLGGQLL	-1.55
HMETITDRLNRRSLELNVSQADIIRTTGAGRGTVSGWFSGANAPSAKYLESLAVALKTSTTWLLSGKD	-0.741
HMKGKIYFFEEGVDRVGGVERVISTLANEFSKKYKVNVISFYKTRKETFFKYNSDIDITYLSK	0.14
HMRLANGIGTVYKLSGNRRNPYIVRKTTGWEIDEESGKAKQKYITIGYAPTRAKGLEMLMDYNKNP	-0.428
HMYSYSGSVINTYKVPVSVVLKDANGSAIASWDLPVDQSLGISAKDIATSSGTIEITGDGVNETKTVTFTK	-0.0188
HMLNDTGAIRAAVEEVLAANEKSVNEYKGGKTQAFQYLIGQSMRALRGKAPAQEVTKLLKELLG	-0.263
HMKKLTNKQIIFFAEKLAHHSDFASKYSKVGESYEEFAIRLEKELNTPQKVEFYSSYLEKVGFK	-2.14
HMQMPDLTGKPRAEAVTTLAALGFTDVKFLDASAGDEPLDYVADQVVRTSPEAGAALASGQQITIYLAT	0.101
HMFVNADEIAKGLSPFNPSSVAIEAGRLMLKRIGELLSAGVSFSVETTLSTRSYINLIQQAQNQGYSVSL	≥ 0.62
HMILYDDEYKGPRYRYGLHSRPLSPGAVPKGFIIHSDRPHPDFRHGTLDYPVKLPDDRAANFELIFIGEFD	-1.02
HMDTHDVQVPQEGQGLRLDLFLTDHIEGSRSFIQTIIKDGHVILNGKKAKANSRLNEGDYVVWSIPKPE	-0.0683
HMFTDEELEHIRSALIQAGIRLSKELGLQKMSVEKLTAAVGIAKGSFYMFFGSKEDFILEVAEYTGAQ	-0.582
HMEDEAVMQLPLSELKGLSPELLAILNGAGYEKLKDVLDLEREDIERIPGMTPERNEQLVAFLAELTE	0.0689
HMSQLSQIVDAFGGLRPFARALNKPPSTVQYWIEKGGIPASVVSPIMKLSEEKGLGLSRDQVSAAVS	0.157
HMLDEIAGQKVRVLEEINNSEGTGKVMYRGVEWMARSVDDAVMAKDSIVTVQSISGVKLMVT	-0.0685
HMLAAAVVVYATDKVNVRAEASETADVIGQLEAGSQTTRLEDKDGWSRIDYSNGTQGYMKSEFLSTEAPT	-0.102
HMEPVIELGDRTLPIEITRHRRARRLTLRLAADGSAVRITLPHWARSAEATAFAHARRDWLAAQLAK	0.0378
HMAFGTGTVTASSLRVREDASTSAATLDTLSKGSKVSVLADEQDGFYKVQIGEQVGYMSAEYLDVTE	0.0904
HMQVEYTRGELIQDLEGGKIVYAGISPSRETPTGEVNFILDSGLTRTLYVTDVSEIEQLLISYDIDPEVKK	-0.0036
HMTAFEPYLVKVMASVLNIRKGPGTSYAITGQIKDKGTYTIVAESGSWGKLKSGAGWISLSYTSKAGKA	-0.67
HMSQNVSFTVDSGQAGLRLDVFLSQADPAFSRSQIKYAIEEGDVTVNGKEPKVSQHLKDGDIVELHLE	-0.0973
HMTLGPKQMGEAIIKNLKEKTGKSLEEWSQRILIHELTDKKEIIDFLKNDNGLGHFQALKIFEHLNGK	-0.02
HMKIEEIAYSTFISMLDKGEVSKVELKDNLIYIETKADDKTIYTTGRMEDPDLTNRLIEAGVDFTEIE	-0.317
